Measurements reported in patent publication US20140348785A1 (published 2014).

Columns and labels:
[1] = target: soluble gp41 MPER peptide RRR-(656-683)-RRR; assay: kinetic binding (ka/kd)
[2] = target: soluble gp41 MPER peptide RRR-(656-683)-RRR; assay: kinetic binding (ka/kd); mean of three runs

B1: G52cA (heavy chain) (antibody, V domains shown)
VH: EVQLVESGGGLVKPGGSLRLSCSASGFDFDNAWMTWVRQPPGKGLEWVGRITGPAEGWSVDYAAPVEGRFTISRLNSINFLYLEMNNLRMEDSGLYFCARTGKYYDFWSGYPPGEEYFQDWGRGTLVTVSS
VL: SYELTQETGVSVALGRTVTITCRGDSLRSHYASWYQKKPGQAPILLFYGKNNRPSGVPDRFSGSASGNRASLTISGAQAEDDAEYYCSSRDKSGSRLSVFGGGTKLTVL
- Kd [1]: 11.1 nM

B2: P100gA (heavy chain) (antibody, V domains shown)
VH: EVQLVESGGGLVKPGGSLRLSCSASGFDFDNAWMTWVRQPPGKGLEWVGRITGPGEGWSVDYAAPVEGRFTISRLNSINFLYLEMNNLRMEDSGLYFCARTGKYYDFWSGYPAGEEYFQDWGRGTLVTVSS
VL: SYELTQETGVSVALGRTVTITCRGDSLRSHYASWYQKKPGQAPILLFYGKNNRPSGVPDRFSGSASGNRASLTISGAQAEDDAEYYCSSRDKSGSRLSVFGGGTKLTVL
- Kd [1]: 691 nM

B3: K97A (heavy chain) (antibody, V domains shown)
VH: EVQLVESGGGLVKPGGSLRLSCSASGFDFDNAWMTWVRQPPGKGLEWVGRITGPGEGWSVDYAAPVEGRFTISRLNSINFLYLEMNNLRMEDSGLYFCARTGAYYDFWSGYPPGEEYFQDWGRGTLVTVSS
VL: SYELTQETGVSVALGRTVTITCRGDSLRSHYASWYQKKPGQAPILLFYGKNNRPSGVPDRFSGSASGNRASLTISGAQAEDDAEYYCSSRDKSGSRLSVFGGGTKLTVL
- Kd [1]: 24.8 nM

B4: Y98A (heavy chain) (antibody, V domains shown)
VH: EVQLVESGGGLVKPGGSLRLSCSASGFDFDNAWMTWVRQPPGKGLEWVGRITGPGEGWSVDYAAPVEGRFTISRLNSINFLYLEMNNLRMEDSGLYFCARTGKAYDFWSGYPPGEEYFQDWGRGTLVTVSS
VL: SYELTQETGVSVALGRTVTITCRGDSLRSHYASWYQKKPGQAPILLFYGKNNRPSGVPDRFSGSASGNRASLTISGAQAEDDAEYYCSSRDKSGSRLSVFGGGTKLTVL
- Kd [1]: 27 nM

B5: W100bA (heavy chain) (antibody, V domains shown)
VH: EVQLVESGGGLVKPGGSLRLSCSASGFDFDNAWMTWVRQPPGKGLEWVGRITGPGEGWSVDYAAPVEGRFTISRLNSINFLYLEMNNLRMEDSGLYFCARTGKYYDFASGYPPGEEYFQDWGRGTLVTVSS
VL: SYELTQETGVSVALGRTVTITCRGDSLRSHYASWYQKKPGQAPILLFYGKNNRPSGVPDRFSGSASGNRASLTISGAQAEDDAEYYCSSRDKSGSRLSVFGGGTKLTVL
- Kd [1]: 93.1 nM

B6: F100aA (heavy chain) (antibody, V domains shown)
VH: EVQLVESGGGLVKPGGSLRLSCSASGFDFDNAWMTWVRQPPGKGLEWVGRITGPGEGWSVDYAAPVEGRFTISRLNSINFLYLEMNNLRMEDSGLYFCARTGKYYDAWSGYPPGEEYFQDWGRGTLVTVSS
VL: SYELTQETGVSVALGRTVTITCRGDSLRSHYASWYQKKPGQAPILLFYGKNNRPSGVPDRFSGSASGNRASLTISGAQAEDDAEYYCSSRDKSGSRLSVFGGGTKLTVL
- Kd [1]: 429 nM

B7: S56A (heavy chain) (antibody, V domains shown)
VH: EVQLVESGGGLVKPGGSLRLSCSASGFDFDNAWMTWVRQPPGKGLEWVGRITGPGEGWAVDYAAPVEGRFTISRLNSINFLYLEMNNLRMEDSGLYFCARTGKYYDFWSGYPPGEEYFQDWGRGTLVTVSS
VL: SYELTQETGVSVALGRTVTITCRGDSLRSHYASWYQKKPGQAPILLFYGKNNRPSGVPDRFSGSASGNRASLTISGAQAEDDAEYYCSSRDKSGSRLSVFGGGTKLTVL
- Kd [1]: 10.9 nM

B8: S100cA (heavy chain) (antibody, V domains shown)
VH: EVQLVESGGGLVKPGGSLRLSCSASGFDFDNAWMTWVRQPPGKGLEWVGRITGPGEGWSVDYAAPVEGRFTISRLNSINFLYLEMNNLRMEDSGLYFCARTGKYYDFWAGYPPGEEYFQDWGRGTLVTVSS
VL: SYELTQETGVSVALGRTVTITCRGDSLRSHYASWYQKKPGQAPILLFYGKNNRPSGVPDRFSGSASGNRASLTISGAQAEDDAEYYCSSRDKSGSRLSVFGGGTKLTVL
- Kd [1]: 9.65 nM

B9: N31A (heavy chain) (antibody, V domains shown)
VH: EVQLVESGGGLVKPGGSLRLSCSASGFDFDAAWMTWVRQPPGKGLEWVGRITGPGEGWSVDYAAPVEGRFTISRLNSINFLYLEMNNLRMEDSGLYFCARTGKYYDFWSGYPPGEEYFQDWGRGTLVTVSS
VL: SYELTQETGVSVALGRTVTITCRGDSLRSHYASWYQKKPGQAPILLFYGKNNRPSGVPDRFSGSASGNRASLTISGAQAEDDAEYYCSSRDKSGSRLSVFGGGTKLTVL
- Kd [1]: 13 nM

B10: Y100eA (heavy chain) (antibody, V domains shown)
VH: EVQLVESGGGLVKPGGSLRLSCSASGFDFDNAWMTWVRQPPGKGLEWVGRITGPGEGWSVDYAAPVEGRFTISRLNSINFLYLEMNNLRMEDSGLYFCARTGKYYDFWSGAPPGEEYFQDWGRGTLVTVSS
VL: SYELTQETGVSVALGRTVTITCRGDSLRSHYASWYQKKPGQAPILLFYGKNNRPSGVPDRFSGSASGNRASLTISGAQAEDDAEYYCSSRDKSGSRLSVFGGGTKLTVL
- Kd [1]: 75.9 nM

B11: D30A (heavy chain) (antibody, V domains shown)
VH: EVQLVESGGGLVKPGGSLRLSCSASGFDFANAWMTWVRQPPGKGLEWVGRITGPGEGWSVDYAAPVEGRFTISRLNSINFLYLEMNNLRMEDSGLYFCARTGKYYDFWSGYPPGEEYFQDWGRGTLVTVSS
VL: SYELTQETGVSVALGRTVTITCRGDSLRSHYASWYQKKPGQAPILLFYGKNNRPSGVPDRFSGSASGNRASLTISGAQAEDDAEYYCSSRDKSGSRLSVFGGGTKLTVL
- Kd [1]: 11.8 nM

B12: R95bA (light chain) (antibody, V domains shown)
VH: EVQLVESGGGLVKPGGSLRLSCSASGFDFDNAWMTWVRQPPGKGLEWVGRITGPGEGWSVDYAAPVEGRFTISRLNSINFLYLEMNNLRMEDSGLYFCARTGKYYDFWSGYPPGEEYFQDWGRGTLVTVSS
VL: SYELTQETGVSVALGRTVTITCRGDSLRSHYASWYQKKPGQAPILLFYGKNNRPSGVPDRFSGSASGNRASLTISGAQAEDDAEYYCSSRDKSGSALSVFGGGTKLTVL
- Kd [1]: 28.6 nM

B13: D28A (heavy chain) (antibody, V domains shown)
VH: EVQLVESGGGLVKPGGSLRLSCSASGFAFDNAWMTWVRQPPGKGLEWVGRITGPGEGWSVDYAAPVEGRFTISRLNSINFLYLEMNNLRMEDSGLYFCARTGKYYDFWSGYPPGEEYFQDWGRGTLVTVSS
VL: SYELTQETGVSVALGRTVTITCRGDSLRSHYASWYQKKPGQAPILLFYGKNNRPSGVPDRFSGSASGNRASLTISGAQAEDDAEYYCSSRDKSGSRLSVFGGGTKLTVL
- Kd [1]: 14.3 nM

B14: E100jA (heavy chain) (antibody, V domains shown)
VH: EVQLVESGGGLVKPGGSLRLSCSASGFDFDNAWMTWVRQPPGKGLEWVGRITGPGEGWSVDYAAPVEGRFTISRLNSINFLYLEMNNLRMEDSGLYFCARTGKYYDFWSGYPPGEAYFQDWGRGTLVTVSS
VL: SYELTQETGVSVALGRTVTITCRGDSLRSHYASWYQKKPGQAPILLFYGKNNRPSGVPDRFSGSASGNRASLTISGAQAEDDAEYYCSSRDKSGSRLSVFGGGTKLTVL
- Kd [1]: 361 nM

B15: P100fA (heavy chain) (antibody, V domains shown)
VH: EVQLVESGGGLVKPGGSLRLSCSASGFDFDNAWMTWVRQPPGKGLEWVGRITGPGEGWSVDYAAPVEGRFTISRLNSINFLYLEMNNLRMEDSGLYFCARTGKYYDFWSGYAPGEEYFQDWGRGTLVTVSS
VL: SYELTQETGVSVALGRTVTITCRGDSLRSHYASWYQKKPGQAPILLFYGKNNRPSGVPDRFSGSASGNRASLTISGAQAEDDAEYYCSSRDKSGSRLSVFGGGTKLTVL
- Kd [1]: 757 nM

B16: 10E8 IgG alanine variant E53A (heavy chain, Kabat) (antibody, V domains shown)
VH: EVQLVESGGGLVKPGGSLRLSCSASGFDFDNAWMTWVRQPPGKGLEWVGRITGPGAGWSVDYAAPVEGRFTISRLNSINFLYLEMNNLRMEDSGLYFCARTGKYYDFWSGYPPGEEYFQDWGRGTLVTVSS
VL: SYELTQETGVSVALGRTVTITCRGDSLRSHYASWYQKKPGQAPILLFYGKNNRPSGVPDRFSGSASGNRASLTISGAQAEDDAEYYCSSRDKSGSRLSVFGGGTKLTVL
- Kd [1]: 395 nM

B17: G100dA (heavy chain) (antibody, V domains shown)
VH: EVQLVESGGGLVKPGGSLRLSCSASGFDFDNAWMTWVRQPPGKGLEWVGRITGPGEGWSVDYAAPVEGRFTISRLNSINFLYLEMNNLRMEDSGLYFCARTGKYYDFWSAYPPGEEYFQDWGRGTLVTVSS
VL: SYELTQETGVSVALGRTVTITCRGDSLRSHYASWYQKKPGQAPILLFYGKNNRPSGVPDRFSGSASGNRASLTISGAQAEDDAEYYCSSRDKSGSRLSVFGGGTKLTVL
- Kd [1]: 315 nM

B18: T52A (heavy chain) (antibody, V domains shown)
VH: EVQLVESGGGLVKPGGSLRLSCSASGFDFDNAWMTWVRQPPGKGLEWVGRIAGPGEGWSVDYAAPVEGRFTISRLNSINFLYLEMNNLRMEDSGLYFCARTGKYYDFWSGYPPGEEYFQDWGRGTLVTVSS
VL: SYELTQETGVSVALGRTVTITCRGDSLRSHYASWYQKKPGQAPILLFYGKNNRPSGVPDRFSGSASGNRASLTISGAQAEDDAEYYCSSRDKSGSRLSVFGGGTKLTVL
- Kd [1]: 10.9 nM

B19: 10E8 monoclonal antibody (full-length IgG) (antibody, V domains shown)
VH: EVQLVESGGGLVKPGGSLRLSCSASGFDFDNAWMTWVRQPPGKGLEWVGRITGPGEGWSVDYAAPVEGRFTISRLNSINFLYLEMNNLRMEDSGLYFCARTGKYYDFWSGYPPGEEYFQDWGRGTLVTVSS
VL: SYELTQETGVSVALGRTVTITCRGDSLRSHYASWYQKKPGQAPILLFYGKNNRPSGVPDRFSGSASGNRASLTISGAQAEDDAEYYCSSRDKSGSRLSVFGGGTKLTVL
- Kd [2]: 6.08 nM

B20: E100iA (heavy chain) (antibody, V domains shown)
VH: EVQLVESGGGLVKPGGSLRLSCSASGFDFDNAWMTWVRQPPGKGLEWVGRITGPGEGWSVDYAAPVEGRFTISRLNSINFLYLEMNNLRMEDSGLYFCARTGKYYDFWSGYPPGAEYFQDWGRGTLVTVSS
VL: SYELTQETGVSVALGRTVTITCRGDSLRSHYASWYQKKPGQAPILLFYGKNNRPSGVPDRFSGSASGNRASLTISGAQAEDDAEYYCSSRDKSGSRLSVFGGGTKLTVL
- Kd [1]: 433 nM

B21: D58A (heavy chain) (antibody, V domains shown)
VH: EVQLVESGGGLVKPGGSLRLSCSASGFDFDNAWMTWVRQPPGKGLEWVGRITGPGEGWSVAYAAPVEGRFTISRLNSINFLYLEMNNLRMEDSGLYFCARTGKYYDFWSGYPPGEEYFQDWGRGTLVTVSS
VL: SYELTQETGVSVALGRTVTITCRGDSLRSHYASWYQKKPGQAPILLFYGKNNRPSGVPDRFSGSASGNRASLTISGAQAEDDAEYYCSSRDKSGSRLSVFGGGTKLTVL
- Kd [1]: 30.6 nM
